Test results as given in patent publication US20020106374A1.

Target: HIV-1JR-FL envelope glycoproteins gp120/gp41 (HIV-1 JR-FL)
Assay: cell-based or functional assay

Substance	IC90, inhibition of HIV-1JR-FL Env-mediated cell-cell fusion (RET assay) [nM]	IC90, inhibition of HIV-1JR-FL virus-cell fusion (luciferase reporter virus, HeLa-CD4+CCR5+ cells) [nM]	K (equal to IC50), inhibition of env-mediated membrane fusion (RET) between HeLa-EnvJR-FL and PM1 cells [µg/mL]	activity in the RET assay after co-incubation of HeLa-Env cells, PM1 cells and inhibitor for 2 h at 25° C., washing and warming to 37° C. [fold lower]	potency in the washout RET assay (drug pre-incubated with HeLa-Env cells, washed, then PM1 cells added) against the standard assay [fold lower]	increase in IC50 in the RET assay after co-incubation of HeLa-Env cells, PM1 cells and inhibitor for 2 h at 25° C., washing and warming to 37° C. (fold increase in IC50)
CD4-IgG2 (from UniProt P01730 26-203; P01730 26-203) (Fc fusion)	11	12	0.31	12	6	
T-20 (peptide)	22	45	0.017			> 250
